According to PMC7923543, “Molecular mechanisms of assembly and TRIP13-mediated remodeling of the human Shieldin complex” (Proceedings of the National Academy of Sciences of the …, 2021):
Values belong to the binder of their own block, whether it stands above or below them.

Experiments:
REV7 = target: T1, REV7 (human, UniProt Q9UI95 1-211); assay: crystal structure; SHLD2.3–REV7_(4) complex (peak Q2); hanging drop, 0.1 M Na acetate pH 5.6, 1.5 M Na formate, 20 °C; 3.8 Å; details: both partners purified
T1 construct: REV7 (MAD2L2, MAD2B), human, 211 residues; also called MAD2L2; MAD2B; not shown: His6-SUMO, N-terminal, cleaved
T1 sequence (Q9UI95 whole entry): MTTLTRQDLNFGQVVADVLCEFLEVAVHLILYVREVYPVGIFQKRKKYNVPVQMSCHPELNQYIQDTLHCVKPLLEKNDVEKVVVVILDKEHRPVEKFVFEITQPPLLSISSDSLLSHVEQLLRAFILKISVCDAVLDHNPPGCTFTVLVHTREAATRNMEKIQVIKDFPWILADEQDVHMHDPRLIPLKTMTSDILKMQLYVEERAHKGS

[1] = target: T2, REV7 (R124A mutant), full-length (human, UniProt Q9UI95 1-211, R124A); assay: SEC-MALS; coexpressed, co-purified SHLD3(35–74)–REV7(R124A) complex; Superdex200 10/300, 20 mM Tris·HCl pH 7.5, 150 mM NaCl, 2 mM DTT; details: both partners purified
T2 construct: REV7 (MAD2L2, MAD2B), human, 211 residues, R124A; R124A was introduced to improve crystallization; also called MAD2L2; MAD2B; source: E. coli BL21 CodonPlus(DE3)-RIL, coexpressed with the SHLD3 fragment, purified (HisTrap, HiTrap Q, Superdex 200); not shown: His6-SUMO, N-terminal, cleaved
T2 sequence (Q9UI95 whole entry R124A, the tested form may be a part): as the sequence (Q9UI95 whole entry) above, with R124A counted along it

[2] = target: T2, REV7 (R124A mutant), full-length; assay: crystal structure; coexpressed, co-purified SHLD3s–REV7(R124A) complex; hanging drop, 0.2 M ammonium acetate, 0.1 M Na citrate pH 5.6, 30% PEG4000, 20 °C; 2.7 Å; details: both partners purified
[3] = target: the molecule itself; assay: cryo-EM structure; reconstituted complexes with TRIP13(E253Q) and ATPγS, 0.3 mg/mL, Titan Krios 300 kV, RELION3

binding result (REV7): binds
B1: SHLD2 fragment (residues 1 to 19), the SHLD2 part of SHLD2.3 (domain or fragment, human, UniProt Q86V20 1-19, looked up)
chain: MSGGSQVHIFWGAPIAPLK
notes: In the crystal it stood on one chain with SHLD3(1-58); written apart for the SHLD2–SHLD3 and SHLD2–REV7 contacts; also called SHLD2(residues 1 to 19); source: E. coli BL21 CodonPlus(DE3)-RIL, as part of the SHLD2.3 fusion chain, purified with REV7

binding result [1]: binds
B2: SHLD3 35- to 74-residue fragment (domain or fragment, human, UniProt Q6ZNX1 35-74, looked up)
chain: LSRFIPWFPYDGSKLPLRPKRSPPVISEEAAEDVKQYLTI
notes: SHLD3, human, 250 residues; residues 35-74; also called SHLD3_(35–74); source: E. coli, coexpressed with REV7(R124A), purified as the complex

binding result [2]: binds
B3: SHLD3s fusion protein (SHLD3 residues 35 to 58 and REV3 residues 1887 to 1894) (other, UniProt Q6ZNX1 35-58, looked up)
chain: LSRFIPWFPYDGSKLPLRPKRSPPREEIMATL
notes: SHLD3, human, residues 35-58; also called SHLD3_(35–58)

B4: TRIP13 catalytic mutant (E253Q) hexamer (enzyme)
chain: MDEAVGDLKQALPCVAESPTVHVEVHQRGSSTAKKEDINLSVRKLLNRHNIVFGDYTWTEFDEPFLTRNVQSVSIIDTELKVKDSQPIDLSACTVALHIFQLNEDGPSSENLEEETENIIAANHWVLPAAEFHGLWDSLVYDVEVKSHLLDYVMTTLLFSDKNVNSNLITWNRVVLLHGPPGTGKTSLCKALAQKLTIRLSSRYRYGQLIEINSHSLFSKWFSESGKLVTKMFQKIQDLIDDKDALVFVLIDQVESLTAARNACRAGTEPSDAIRVVNAVLTQIDQIKRHSNVVILTTSNITEKIDVAFVDRADIKQYIGPPSAAAIFKIYLSCLEELMKCQIIYPRQQLLTLRELEMIGFIENNVSKLSLLLNDISRKSEGLSGRVLRKLPFLAHALYVQAPTVTIEGFLQALSLAVDKQFEERKKLAAYI
notes: TRIP13, AAA+ ATPase, E253Q; used with ATPγS; also called TRIP13(E253Q); TRIP13 (E253Q); source: E. coli BL21 CodonPlus(DE3)-RIL, purified (HiTrap Q, Superdex 200)
stoichiometry N [3]: 6
